{
  "source": "the supplement of paper PMC10724198",
  "note": "± gives the standard deviation of the averaged measurements.",
  "data": [
    {"test_system": "Saccharomyces cerevisiae", "assay": "protein stability index of tFT-peptide fusion (C-terminal peptide) (PSI (0-1 scale)); higher = more stable (slower turnover)", "settings": "genetic background: das1 deletion; temperature: 30 C", "experimental": "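MPS profiling in S. cerevisiae of the yeast C-terminome library: the last 12 aa of each annotated ORF are fused to the C-terminus of a sfGFP-mCherry timer, after a GGGS linker. Cells are FACS-sorted into 8 mCherry/sfGFP bins and deep-sequenced. PSI runs from 0 (unstable) to 1 (stable); wild type and das1Δ backgrounds, two technical replicates each.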", "values": [
      {"sequence": "AKLSEGTSFRRK [RPS27A C-terminal 12 aa]", "protein stability index": "0.6952 ± 0.0023"},
      {"sequence": "AKNARPSKKRKF [DBP10 C-terminal 12 aa]", "protein stability index": "0.752 ± 0.025"},
      {"sequence": "AKPKYEKILIDN [RTC2 C-terminal 12 aa]", "protein stability index": "0.703 ± 0.011"},
      {"sequence": "AKRDILPSPVSV [LPP1 C-terminal 12 aa]", "protein stability index": "0.6165 ± 0.005"},
      {"sequence": "ALKHGEKAFNIN [NEM1 C-terminal 12 aa]", "protein stability index": "0.678 ± 0.017"},
      {"sequence": "ALLDGFVTAAGY [DAK2 C-terminal 12 aa]", "protein stability index": "0.745 ± 0.027"},
      {"sequence": "AMLKPSSKEGSP [COQ10 C-terminal 12 aa]", "protein stability index": "0.6955 ± 0.0028"},
      {"sequence": "ANESLEEDLNLD [YBR137W C-terminal 12 aa]", "protein stability index": "0.698 ± 0.031"},
      {"sequence": "ANKNDAISKKVE [ATG23 C-terminal 12 aa]", "protein stability index": "0.69 ± 0.017"},
      {"sequence": "AQQNYRLWLSSV [ATG41 C-terminal 12 aa]", "protein stability index": "0.682 ± 0.016"},
      {"sequence": "ARLLRFWDHIIR [SHU1 C-terminal 12 aa]", "protein stability index": "0.728 ± 0.016"},
      {"sequence": "ARTSDELQFTLP [MPT5 C-terminal 12 aa]", "protein stability index": "0.7165 ± 0.0027"},
      {"sequence": "ARVASQLGQKKK [PRO3 C-terminal 12 aa]", "protein stability index": "0.6735 ± 0.0064"},
      {"sequence": "ASPTCTPQNPCV [CAB4 C-terminal 12 aa]", "protein stability index": "0.706 ± 0.021"},
      {"sequence": "ASYIQSREICLV [GNT1 C-terminal 12 aa]", "protein stability index": "0.6464 ± 0.006"},
      {"sequence": "ATGGKKTTFADE [RPA14 C-terminal 12 aa]", "protein stability index": "0.711 ± 0.054"},
      {"sequence": "ATTDQEGDIHLE [PRE10 C-terminal 12 aa]", "protein stability index": "0.689 ± 0.026"},
      {"sequence": "ATTNISVLQECV [VRL1 C-terminal 12 aa]", "protein stability index": "0.666 ± 0.018"},
      {"sequence": "AWVPPTEDDSDE [DPH5 C-terminal 12 aa]", "protein stability index": "0.698 ± 0.018"},
      {"sequence": "AYLQYYSESPEN [DUG1 C-terminal 12 aa]", "protein stability index": "0.707 ± 0.0053"},
      {"sequence": "CFFLRKENGKDE [YLR120W-A C-terminal 12 aa]", "protein stability index": "0.709 ± 0.041"},
      {"sequence": "CHLLFGTHKKTL [YBL071C-B C-terminal 12 aa]", "protein stability index": "0.7233 ± 0.002"},
      {"sequence": "CKQWEISNMLKK [CSI1 C-terminal 12 aa]", "protein stability index": "0.738 ± 0.023"},
      {"sequence": "CKYPTKDIPIFF [RAD17 C-terminal 12 aa]", "protein stability index": "0.727 ± 0.013"},
      {"sequence": "CLSLDFVVPRPK [SHR5 C-terminal 12 aa]", "protein stability index": "0.74 ± 0.016"},
      {"sequence": "CMRPANQEIYPL [YLR157W-D C-terminal 12 aa]", "protein stability index": "0.704 ± 0.02"},
      {"sequence": "CSGAAGKIYVCD [CDC40 C-terminal 12 aa]", "protein stability index": "0.6678 ± 0.005"},
      {"sequence": "CTSCGYKFRTNN [RPA12 C-terminal 12 aa]", "protein stability index": "0.7397 ± 0.0049"},
      {"sequence": "CTSLLKGERKKE [RRT8 C-terminal 12 aa]", "protein stability index": "0.6656 ± 0.00077"},
      {"sequence": "DAFEKAIEAVYA [ARG8 C-terminal 12 aa]", "protein stability index": "0.546 ± 0.014"},
      {"sequence": "DAFTDPRQYHLT [BUD19 C-terminal 12 aa]", "protein stability index": "0.717 ± 0.0052"},
      {"sequence": "DAHIYNKRSKPD [PHO80 C-terminal 12 aa]", "protein stability index": "0.646 ± 0.012"},
      {"sequence": "DDAKDSNNSSLR [WSC2 C-terminal 12 aa]", "protein stability index": "0.682 ± 0.011"},
      {"sequence": "DDAVNCNTSNCL [ZRC1 C-terminal 12 aa]", "protein stability index": "0.7026 ± 0.002"},
      {"sequence": "DDEEATAMFKLE [IES1 C-terminal 12 aa]", "protein stability index": "0.715 ± 0.0089"},
      {"sequence": "DDNEPDEEANRA [RXT2 C-terminal 12 aa]", "protein stability index": "0.672 ± 0.012"},
      {"sequence": "DDTLERAGRIKN [FAD1 C-terminal 12 aa]", "protein stability index": "0.69 ± 0.023"},
      {"sequence": "DECFCLARHEND [TDP1 C-terminal 12 aa]", "protein stability index": "0.7114 ± 0.0022"},
      {"sequence": "DEKTLDSIGNSL [VCX1 C-terminal 12 aa]", "protein stability index": "0.701 ± 0.0096"},
      {"sequence": "DENDKVIAIKVV [VPS25 C-terminal 12 aa]", "protein stability index": "0.5736 ± 0.00061"},
      {"sequence": "DGFSVPITTFQT [CDC15 C-terminal 12 aa]", "protein stability index": "0.712 ± 0.011"},
      {"sequence": "DHLHNLAQYWRT [VPS34 C-terminal 12 aa]", "protein stability index": "0.697 ± 0.015"},
      {"sequence": "DIIKQGVNDIIV [ARD1 C-terminal 12 aa]", "protein stability index": "0.672 ± 0.015"},
      {"sequence": "DIISAFEEYKNA [SEC3 C-terminal 12 aa]", "protein stability index": "0.714 ± 0.036"},
      {"sequence": "DLEEAANKAQPQ [YLR257W C-terminal 12 aa]", "protein stability index": "0.6993 ± 0.0011"},
      {"sequence": "DLESLFKEKLSI [ALA1 C-terminal 12 aa]", "protein stability index": "0.7111 ± 0.0015"},
      {"sequence": "DLEVKLKKHKKN [TRZ1 C-terminal 12 aa]", "protein stability index": "0.733 ± 0.029"},
      {"sequence": "DLVKAAAGSDNE [RRP15 C-terminal 12 aa]", "protein stability index": "0.6823 ± 0.0059"},
      {"sequence": "DLVKASSTLNVS [SDL1 C-terminal 12 aa]", "protein stability index": "0.682 ± 0.0043"},
      {"sequence": "DMGKNLLQNKKF [ERG2 C-terminal 12 aa]", "protein stability index": "0.695 ± 0.039"},
      {"sequence": "DNDDDAGAVPTS [CDC13 C-terminal 12 aa]", "protein stability index": "0.7113 ± 0.0012"},
      {"sequence": "DPKLYFDATILS [TDA3 C-terminal 12 aa]", "protein stability index": "0.703 ± 0.025"},
      {"sequence": "DSQDMERMDSDS [YLR076C C-terminal 12 aa]", "protein stability index": "0.691 ± 0.035"},
      {"sequence": "DSQHKHDYSHSG [DCK1 C-terminal 12 aa]", "protein stability index": "0.6787 ± 0.0061"},
      {"sequence": "DTFPRWEGIKSK [PAD1 C-terminal 12 aa]", "protein stability index": "0.70511 ± 2.5e-05"},
      {"sequence": "DVEDVERVSKKI [CDC34 C-terminal 12 aa]", "protein stability index": "0.704 ± 0.057"},
      {"sequence": "DWESNQAKWIYE [YNK1 C-terminal 12 aa]", "protein stability index": "0.752 ± 0.034"},
      {"sequence": "DYKTKRNPSVLH [ISU2 C-terminal 12 aa]", "protein stability index": "0.6878 ± 0.0024"},
      {"sequence": "DYSRRVLRLMNE [WSC4 C-terminal 12 aa]", "protein stability index": "0.7058 ± 0.0028"},
      {"sequence": "DYWRKRGISSVY [ECM38 C-terminal 12 aa]", "protein stability index": "0.68703 ± 0.00044"},
      {"sequence": "DYYFRTGVKRLQ [ARP10 C-terminal 12 aa]", "protein stability index": "0.705 ± 0.028"},
      {"sequence": "EAETPGIIDKHQ [SIS2 C-terminal 12 aa]", "protein stability index": "0.689 ± 0.023"},
      {"sequence": "EALPPCLQIFRP [YDR354C-A C-terminal 12 aa]", "protein stability index": "0.701 ± 0.0091"},
      {"sequence": "EAQLSCSEESLA [COS1 C-terminal 12 aa]", "protein stability index": "0.69057 ± 5e-06"},
      {"sequence": "EASEPFKTFKNT [MMS22 C-terminal 12 aa]", "protein stability index": "0.724 ± 0.0073"},
      {"sequence": "EDDFGPKPKFFI [SWE1 C-terminal 12 aa]", "protein stability index": "0.71 ± 0.011"},
      {"sequence": "EEEEEEGKEGDA [SCT1 C-terminal 12 aa]", "protein stability index": "0.684 ± 0.012"},
      {"sequence": "EEKKKQEEGHSN [MNN4 C-terminal 12 aa]", "protein stability index": "0.699 ± 0.0072"},
      {"sequence": "EFAKCEFETPAV [CKB1 C-terminal 12 aa]", "protein stability index": "0.722 ± 0.011"},
      {"sequence": "EFDLADDRRYDI [TPO5 C-terminal 12 aa]", "protein stability index": "0.705 ± 0.03"},
      {"sequence": "EGIFPANYVELV [LSB3 C-terminal 12 aa]", "protein stability index": "0.7016 ± 0.0045"},
      {"sequence": "EGPVTIILDSDQ [DTD1 C-terminal 12 aa]", "protein stability index": "0.701 ± 0.0098"},
      {"sequence": "EKKFKEILNIQW [PET112 C-terminal 12 aa]", "protein stability index": "0.709 ± 0.025"},
      {"sequence": "EKKYSNNTNAIQ [CTI6 C-terminal 12 aa]", "protein stability index": "0.68042 ± 0.00045"},
      {"sequence": "EKPEGKDTKTEE [CMK1 C-terminal 12 aa]", "protein stability index": "0.685 ± 0.022"},
      {"sequence": "EKQSSTASEKAA [THI7 C-terminal 12 aa]", "protein stability index": "0.6813 ± 0.0064"},
      {"sequence": "EKRLQKEIKSIE [IDP1 C-terminal 12 aa]", "protein stability index": "0.734 ± 0.012"},
      {"sequence": "ELDEIANSLENL [TPM2 C-terminal 12 aa]", "protein stability index": "0.694 ± 0.019"},
      {"sequence": "ELKRKDALSKKI [COA2 C-terminal 12 aa]", "protein stability index": "0.688 ± 0.048"},
      {"sequence": "ELLQSFSLVLTL [YKL153W C-terminal 12 aa]", "protein stability index": "0.64297 ± 0.00021"},
      {"sequence": "ELPAQKSTVISE [GEP7 C-terminal 12 aa]", "protein stability index": "0.733 ± 0.039"},
      {"sequence": "ELQDALNTELLF [VAC17 C-terminal 12 aa]", "protein stability index": "0.7157 ± 0.0042"},
      {"sequence": "ELTFDVKLVSMK [FPR4 C-terminal 12 aa]", "protein stability index": "0.686 ± 0.0071"}
    ]}
  ]
}
